Measurements from the supplement of paper PMC12764529.
± gives the half width of the 95% confidence interval.

Assays:
[1] = folding stability dG unfold from chymotrypsin proteolysis; higher = more stable
How it was run: (§1)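 Sequencing followed digestion of designed mini-proteins with trypsin and chymotrypsin, each at 11 concentrations in threefold dilutions together with a no-protease condition. The mini-proteins were under 80 residues, had no cysteine, sat in a PA-tagged cDNA display construct, and were kept only if AlphaFold2 dimer inter-PAE was above 15. From the counts, Bayesian fitting gave K50, and unfolding free energy was derived against a sequence-predicted unfolded-state K50 and a shared folded-state K50, per protease or combined.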

[2] = folding stability dG unfold (combined trypsin and chymotrypsin); higher = more stable
How it was run: as §1

[3] = folding stability dG unfold from trypsin proteolysis; higher = more stable
How it was run: as §1

Sequence | folding stability dG unfold [1] [kcal/mol] | folding stability dG unfold [2] [kcal/mol] | folding stability dG unfold [3] [kcal/mol]
SAGGSKKTLTITVKNKETGETVKIKVELTPDGKKIKITIVAKKEEEAKEAAKKLLEELGYKVEIVPSAGGSA [r2_30_TrROS_Hall] | 1.61 ± 0.066 | 2.09 ± 0.2 | 3.15 ± 0.36
SAGGSKKVILIAKIPNEDKYLVLIASDSPELVKEAAKKAKKPGFYVLGEMTVEEAVKKLGLPPELFKSAGGS [r16_438_TrMRF] | 2.5 ± 0.051 | 2.23 ± 0.19 | 1.04 ± 0.03
SAGGSKLPPGQKVIEIEWKIPPGLKPGQPFKISDEFINKLAERHGNIHITNIQFTNSYMKWSIIIDSAGGSA [r2_383_TrROS] | 2.2 ± 0.051 | 2.11 ± 0.067 | 1.83 ± 0.063
SAGGSKMEIVKYDKEKNVIYVRVDGKTYTFPLDEITEVTFDEETGELTIKVNGKTYTIKLDLPDLVSAGGSA [r2_48_TrROS_Hall] | 4.29 ± 0.12 | 4.11 ± 0.29 | 3.22 ± 0.16
SAGGSKMPPGYKMIPIEIPFRTPEDLEQAINFAEELAREGFTIIDIDVEIPEGDNYRVEFHIMLPYSAGGSA [r2_350_TrROS] | 2.6 ± 0.048 | 2.31 ± 0.1 | 1.85 ± 0.056
SAGGSKPILKIKITIYRIDKNGKLIKKIELTLPPLTEEQLKKLLEALKKLPKDVKIVEVKIELVEPSAGGSA [r2_75_TrROS_Hall] | 4.54 ± 0.26 | 4.16 ± 0.31 | 3.49 ± 0.32
SAGGSKPLKKIVIPLTPEELKKLKGKKVKITIKVDGKEYEIEFIDGYAVITVPAGEKVEITKIEIESAGGSA [r2_246_TrROS_Hall] | 2.36 ± 0.12 | 2.41 ± 0.22 | 2.47 ± 0.15
SAGGSKPVKVTVRRDPKNPDKWTVTVTAGDKTTTLTFDPNDEAAVRAALEAALPADEVLEELEFEDLLSAGG [r13_519_JUSTAS] | 2.99 ± 0.043 | 2.88 ± 0.17 | 2.8 ± 0.12
SAGGSKTITIELTTKDGYKFTITVTEKDDKVTANITFLDPTVTPEKIDETIATLEKLAKEAGKNLTISSAGG [r13_774_TrMRF] | 3.66 ± 0.088 | 3.36 ± 0.095 | 2.62 ± 0.11
SAGGSKVRIEVEELPDGTVKVTAEVEVDGVLYKIEAEFRINEDGEIVEMKVKIEARPLPPPPPPEESAGGSA [r2_474_TrROS_Hall] | 4.17 ± 0.17 | 3.92 ± 0.21 | 3.5 ± 0.27
SAGGSLEDFELAGTFPATSEGETLLVTVWKSKEPGKYVVSAYYPSTGIPEVKVVNPEDIEEFFKNLYSAGGS [r8_469_TrMRF] | 1.95 ± 0.051 | 1.78 ± 0.054 | 1.48 ± 0.02
SAGGSLELPEGAKVEVEVEIEEVDDDTVKIKVKVKFTFINEDGEPETFEAEFEFEIPKEEAEELLGSAGGSA [r2_226_TrMRF] | 3.66 ± 0.11 | 3.32 ± 0.13 | 1.88 ± 0.17
SAGGSLFEKLNVKSVEVTEVKTYTLPPLPLTVEVPTVKVTLPDGTVIEFTVIKTYDPEDPTPTVTLGSAGGS [r8_422_JUSTAS] | 1.31 ± 0.12 | 1.08 ± 0.07 | 0.822 ± 0.027
SAGGSLKDMPVEDLAKYFARKMGYPITDVKVERNPDPPWIKINIEMEHPNDGRRHPHEIWIPKDDISAGGSA [r2_156_TrROS] | 1.3 ± 0.11 | 0.995 ± 0.083 | 0.527 ± 0.062
SAGGSLLEQEAAARGYQVEIERIPGTGVYLVTLTPPDGSRVVVTVEVVKTPKTGLVELRTLETRELPPSAGG [r13_936_JUSTAS] | 1.707 ± 0.011 | 1.53 ± 0.052 | 1.24 ± 0.023
SAGGSLSEIIEKAKELAKKKYPNKGVTVPVEIKYKDPVKKKWIKVKIEITFDKNGNIIKITIKEIKLESAGG [r13_770_JUSTAS] | 4.04 ± 0.12 | 3.91 ± 0.41 | 3.48 ± 0.27
SAGGSMAKILEIIPEEKKIVVEFEGDPKTFPLDEIEEIRIEPEKGYLTIKVGDKVYTIPLDDPNDFSAGGSA [r2_48_TrMRF] | 2.25 ± 0.044 | 1.81 ± 0.082 | 0.579 ± 0.027
SAGGSMDLRVVVVGEDGKVLELPAGEEVSLPDVVAFFSELGDFEVEAHPESGTLTIRVPKGVLEEASAGGSA [r2_164_TrMRF] | 0.804 ± 0.042 | 0.728 ± 0.046 | 0.543 ± 0.02
SAGGSMEIVKKETFTLEDGRKIEVVYDKETNKYVVKIYNKETGEEVEITVKSKEEAEEALKKLLEESAGGSA [r2_70_TrROS_Hall] | 3.76 ± 0.072 | 3.43 ± 0.37 | 1.88 ± 0.13
SAGGSMIEEAIEEALKKGLEKVEIEVEVEVNGKIYRVKMEIVKVEEGKVEIKIEVEEIDPETGKLISAGGSA [r2_420_TrROS_Hall] | 3.92 ± 0.15 | 3.53 ± 0.19 | 2.54 ± 0.13
SAGGSMIELTLTSTVPDGTPASTVPPEVAREQALAYAEAQGLTVVEIRVEFDPEAGTITIPVVTALSAGGSA [r2_237_JUSTAS] | 0.679 ± 0.13 | 1.11 ± 0.12 | 1.38 ± 0.042

Sequence | folding stability dG unfold [1] [kcal/mol] | folding stability dG unfold [2] [kcal/mol] | folding stability dG unfold [3] [kcal/mol]
SAGGSMISTLSESVDPAKNTTYYLNLYTEGSRAYGALVTVTTDPATGTKTITTKFPALPEVTTTETVASAGG [r13_615_JUSTAS] | 0.489 ± 0.061 | 0.551 ± 0.034 | 0.511 ± 0.026
SAGGSMIVIVEIKPDGTIKIKVRTKDGKEKTIEISKEELEKEETPEEIAEKLAKEFEKEGVEEIEISAGGSA [r2_249_TrROS_Hall] | 2.19 ± 0.54 | 2.26 ± 0.32 | 2.88 ± 0.26
SAGGSMKEIVELGEVEFEEDSVALKVKFKVKLVFYDPETGEKVEEREEELEVYFGGDTLEFSPVEGSAGGSA [r2_271_TrMRF] | 2.373 ± 0.02 | 2.08 ± 0.11 | 1.49 ± 0.045
SAGGSMKIVEIKIKRNKNGKLTIEIKVELSEEELEDKEKRKKLIEELAKKLAEELEKKFGIKVEVPSAGGSA [r2_306_TrROS_Hall] | 3.28 ± 0.091 | 3.28 ± 0.14 | 3.16 ± 0.089
SAGGSMKVKIEVEKTPKGYKVRITVEKDGKTYEFEFPEDMSLEEVLEKLKKELEKEGVEIEKIEIVSAGGSA [r2_497_TrROS_Hall] | 4.58 ± 0.15 | 4.43 ± 0.26 | 3.15 ± 0.13
SAGGSMLEVYYRIPPDIPLEEALERVAREVEEVLRARYGGPVTVEAEEVERPPDDETLLRVLVRFESAGGSA [r2_214_TrMRF] | 2.558 ± 0.024 | 2.37 ± 0.11 | 1.7 ± 0.03
SAGGSMLTPDQVIELPDPNVTATITESEVLEEDPEHGTLLVKYLVVISKNGNPVEEERLLRVPKPVSAGGSA [r2_272_JUSTAS] | -0.476 ± 0.22 | -0.01 ± 0.079 | 0.205 ± 0.042
SAGGSMNPSVSVEEEVFPDGVTRLKLTFSDGKELEAEVTRHADGNVQVTLYDKSPGKKTTYTIPLSSAGGSA [r2_99_JUSTAS] | 1.57 ± 0.22 | 1.21 ± 0.21 | 0.65 ± 0.12
SAGGSMNPYSETITVNLPVPTPSGGSVVRPVTVPISIVYEDEKELEEALKKAKEEAEAAARKALGLESAGGS [r16_339_JUSTAS] | 0.685 ± 0.069 | 1.05 ± 0.11 | 1.37 ± 0.067
SAGGSMPPDTEIAVIRVEVRPPDGSTLPLLFTVPLEKVEEVAKEIAERLREKGYEVKVELAAVFPVSAGGSA [r2_274_TrMRF] | 2.18 ± 0.06 | 2.04 ± 0.11 | 2.06 ± 0.057
SAGGSMPPIVASVVEVRFYRFEEEDRERLEAEVTLKLKDGSTATIRLEFPDLSEEELLKTVEETLLSAGGSA [r2_26_JUSTAS] | 2.525 ± 0.022 | 2.31 ± 0.043 | 1.78 ± 0.042
SAGGSMPVPYESKNVSPSGVEVSSTTYPYDFQIEKFPGSNPVITRTDPKTGEVTPIGTEEELEKLLKSAGGS [r8_232_JUSTAS] | 0.182 ± 0.21 | 0.0982 ± 0.13 | -0.172 ± 0.047
SAGGSMSAEELREKIAADPRISLDDVTVTVTRTPDSVTVTVTLKDPNDPVYVEAEERARALFAELASAGGSA [r2_3_JUSTAS] | -1 ± 0.24 | 0.16 ± 0.049 | 0.704 ± 0.024
SAGGSMTAEELAEELAARHPDATVERSPSGVVTFRLPATGLTVTVSSGAGELRITVEDPTVPRRTLESAGGS [r16_478_JUSTAS] | -0.527 ± 0.5 | -0.312 ± 0.3 | 0.0944 ± 0.27
SAGGSMTAEELEGLPAEEIAELLPSDYTVSFIPETGLLVVEAPTRVVLATYNPAEGTVTLLEVRDASAGGSA [r2_470_TrMRF] | 0.819 ± 0.07 | 0.91 ± 0.12 | 0.849 ± 0.086
SAGGSMTEEELEKKAKEIAEELEKKYKEENPNVEVKVTFEVIPEKGIIKITATSPKGKKLKEIIIPLLSAGG [r13_247_JUSTAS] | 3.54 ± 0.23 | 3.9 ± 0.31 | 3.74 ± 0.28
SAGGSMTEEERRALAEEIAKEVAEKISEEEGIPVKEILSIEVHPDGSVTITIKFPGTEGERTITIPRSAGGS [r16_622_JUSTAS] | 2.38 ± 0.17 | 2.27 ± 0.19 | 1.96 ± 0.067
SAGGSMTITITNEDGSTYEITVEEENGKLRITITVDGKTVEIEFDKETGKITIRYNGKTFTLTIKPSAGGSA [r2_194_TrROS_Hall] | 5.33 ± 0.13 | 5 ± 0.42 | 3.85 ± 0.19
SAGGSMTITYDPETNTVTILDPNIPPNEPRPVTLTLPDGEKYTLTLRPVPGNGWTGTLTWKSTKDGSAGGSA [r2_89_TrMRF] | 1.54 ± 0.19 | 1.27 ± 0.21 | 0.911 ± 0.05
SAGGSMTMTVEIHYPDGTVETRTVPYAPDDPAAAIAAVKAEVEARGGEVLAVETRDGVVTVKALVPPSAGGS [r16_662_JUSTAS] | 3.01 ± 0.086 | 2.72 ± 0.095 | 2.4 ± 0.07
SAGGSMTTITLTLEFELDENGEVDPEKIEAEAEKIKEENPEIKELTVEVKRDPNSNKITVTVTAKVPSAGGS [r8_258_JUSTAS] | 3.29 ± 0.19 | 3.06 ± 0.18 | 2.79 ± 0.2
